In patent US20250060376A1 (PLASMARKER BIOTECHNOLOGY, published 2025):

Biological target: T1, GluA1 (mouse (hippocampus of DIR-KI mice), UniProt P23818 19-907, limits assumed)
T1 construct: Endogenous protein in tissue sections (PLA assay)
Test: PLA assay in hippocampus (FIG. 20E)

T1 sequence (P23818 19-907 limits assumed): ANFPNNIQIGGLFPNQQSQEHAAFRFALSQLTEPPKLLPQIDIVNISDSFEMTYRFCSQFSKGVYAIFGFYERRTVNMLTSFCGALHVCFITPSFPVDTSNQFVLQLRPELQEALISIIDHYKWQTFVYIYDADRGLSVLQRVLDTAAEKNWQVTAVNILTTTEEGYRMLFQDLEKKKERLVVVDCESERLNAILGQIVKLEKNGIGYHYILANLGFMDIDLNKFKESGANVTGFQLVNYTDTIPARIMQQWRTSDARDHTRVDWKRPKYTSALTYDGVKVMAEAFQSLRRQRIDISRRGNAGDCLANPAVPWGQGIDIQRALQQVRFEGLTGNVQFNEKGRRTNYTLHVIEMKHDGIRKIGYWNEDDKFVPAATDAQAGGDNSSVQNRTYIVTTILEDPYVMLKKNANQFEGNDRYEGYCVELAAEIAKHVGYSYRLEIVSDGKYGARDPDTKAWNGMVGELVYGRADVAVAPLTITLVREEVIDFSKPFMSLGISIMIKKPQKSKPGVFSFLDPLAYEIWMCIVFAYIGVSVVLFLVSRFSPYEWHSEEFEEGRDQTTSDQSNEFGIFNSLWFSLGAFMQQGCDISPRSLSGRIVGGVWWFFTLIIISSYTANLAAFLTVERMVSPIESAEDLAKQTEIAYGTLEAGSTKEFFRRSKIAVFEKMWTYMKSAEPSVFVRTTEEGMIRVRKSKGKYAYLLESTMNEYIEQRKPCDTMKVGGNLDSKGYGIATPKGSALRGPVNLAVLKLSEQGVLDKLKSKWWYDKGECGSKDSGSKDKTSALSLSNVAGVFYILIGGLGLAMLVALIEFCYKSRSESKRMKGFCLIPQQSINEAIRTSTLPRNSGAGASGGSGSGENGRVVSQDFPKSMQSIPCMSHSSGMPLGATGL

binding result: binds
B1: DNA damage-inducible transcript 4-like (DDIT4L) intron retention spliced product (DIR) protein (other)
chain: MVATGSLSSKNPASISELLDCGYHPESLLSGECPRCPPFSPPKVGASGSIGWAGFRLPPLPLCRRCHKIHLRRLLSKFSNIFSP
notes: 84 aa spliced product peptide; also called QDLIR; human DIR
